According to article PMC10397247:

Experiments:
4H1193-bA = biological target: T1, 4H1193-bA; assay: two-hybrid library CCNG1;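 further: natural log of median RNA to DNA barcode read ratio; higher means stronger binding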
T1 chain: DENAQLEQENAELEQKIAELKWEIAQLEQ

4H1328-bA = biological target: T2, 4H1328-bA; assay: two-hybrid library CCNG1;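 further: natural log of median RNA to DNA barcode read ratio; higher means stronger binding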
T2 chain: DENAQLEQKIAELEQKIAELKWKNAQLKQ

4H1369-bA = biological target: T3, 4H1369-bA; assay: two-hybrid library CCNG1;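 further: natural log of median RNA to DNA barcode read ratio; higher means stronger binding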
T3 chain: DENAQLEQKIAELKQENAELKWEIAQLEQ

4H1387-bA = biological target: T4, 4H1387-bA; assay: two-hybrid library CCNG1;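 further: natural log of median RNA to DNA barcode read ratio; higher means stronger binding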
T4 chain: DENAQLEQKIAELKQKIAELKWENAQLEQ

4H1406-bA = biological target: T5, 4H1406-bA; assay: two-hybrid library CCNG1
T5 chain: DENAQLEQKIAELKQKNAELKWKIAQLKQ

4H1446-bA = biological target: T6, 4H1446-bA; assay: two-hybrid library CCNG1
T6 chain: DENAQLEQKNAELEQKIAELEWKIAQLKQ

4H1845-bA = biological target: T7, 4H1845-bA; assay: two-hybrid library CCNG1
T7 chain: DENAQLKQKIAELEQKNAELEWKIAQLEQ

4H2576-bA = biological target: T8, 4H2576-bA; assay: two-hybrid library CCNG1
T8 chain: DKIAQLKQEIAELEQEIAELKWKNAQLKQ

4H2610-bA = biological target: T9, 4H2610-bA; assay: two-hybrid library CCNG1
T9 chain: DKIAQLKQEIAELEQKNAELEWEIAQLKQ

4H2667-bA = biological target: T10, 4H2667-bA; assay: two-hybrid library CCNG1
T10 chain: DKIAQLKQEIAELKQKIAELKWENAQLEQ

4H2697-bA = biological target: T11, 4H2697-bA; assay: two-hybrid library CCNG1
T11 chain: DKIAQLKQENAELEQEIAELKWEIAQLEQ

4H3189-bA = biological target: T12, 4H3189-bA; assay: two-hybrid library CCNG1
T12 chain: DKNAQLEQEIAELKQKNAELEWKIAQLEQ

4H331-bA = biological target: T13, 4H331-bA; assay: two-hybrid library CCNG1
T13 chain: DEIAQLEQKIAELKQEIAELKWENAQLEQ

4H3592-bA = biological target: T14, 4H3592-bA; assay: two-hybrid library CCNG1
T14 chain: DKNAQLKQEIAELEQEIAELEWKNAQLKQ

4H3601-bA = biological target: T15, 4H3601-bA; assay: two-hybrid library CCNG1
T15 chain: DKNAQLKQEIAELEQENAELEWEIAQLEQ

4H3606-bA = biological target: T16, 4H3606-bA; assay: two-hybrid library CCNG1
T16 chain: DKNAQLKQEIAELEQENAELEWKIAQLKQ

4H370-bA = biological target: T17, 4H370-bA; assay: two-hybrid library CCNG1
T17 chain: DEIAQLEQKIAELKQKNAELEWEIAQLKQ

4H3782-bA = biological target: T18, 4H3782-bA; assay: two-hybrid library CCNG1
T18 chain: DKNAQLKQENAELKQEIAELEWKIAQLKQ

4H3843-bA = biological target: T19, 4H3843-bA; assay: two-hybrid library CCNG1
T19 chain: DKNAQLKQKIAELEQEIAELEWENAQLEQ

4H3907-bA = biological target: T20, 4H3907-bA; assay: two-hybrid library CCNG1
T20 chain: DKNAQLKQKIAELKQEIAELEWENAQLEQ

4H4001-bA = biological target: T21, 4H4001-bA; assay: two-hybrid library CCNG1
T21 chain: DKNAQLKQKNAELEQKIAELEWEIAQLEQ

4H4038-bA = biological target: T22, 4H4038-bA; assay: two-hybrid library CCNG1
T22 chain: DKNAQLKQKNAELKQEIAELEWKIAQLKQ

4H454-bH = biological target: T23, 4H454-bH; assay: two-hybrid library CCNG1
T23 chain: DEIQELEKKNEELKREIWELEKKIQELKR

4H462-bA = biological target: T24, 4H462-bA; assay: two-hybrid library CCNG1
T24 chain: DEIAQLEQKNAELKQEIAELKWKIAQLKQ

4H568-bA = biological target: T25, 4H568-bA; assay: two-hybrid library CCNG1
T25 chain: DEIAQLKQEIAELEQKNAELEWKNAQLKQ

4H607-bA = biological target: T26, 4H607-bA; assay: two-hybrid library CCNG1
T26 chain: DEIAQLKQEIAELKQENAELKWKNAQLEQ

4H687-bA = biological target: T27, 4H687-bA; assay: two-hybrid library CCNG1
T27 chain: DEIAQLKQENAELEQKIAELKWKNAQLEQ

4H72-bA = biological target: T28, 4H72-bA; assay: two-hybrid library CCNG1
T28 chain: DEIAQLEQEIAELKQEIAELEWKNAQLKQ

4H797-bA = biological target: T29, 4H797-bA; assay: two-hybrid library CCNG1
T29 chain: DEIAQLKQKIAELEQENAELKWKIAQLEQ

4H883-bA = biological target: T30, 4H883-bA; assay: two-hybrid library CCNG1
T30 chain: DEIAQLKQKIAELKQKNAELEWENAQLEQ

4H918-bA = biological target: T31, 4H918-bA; assay: two-hybrid library CCNG1
T31 chain: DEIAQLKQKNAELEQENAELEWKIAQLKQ

4H953-bA = biological target: T32, 4H953-bA; assay: two-hybrid library CCNG1
T32 chain: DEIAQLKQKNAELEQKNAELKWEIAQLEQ

4H967-bA = biological target: T33, 4H967-bA; assay: two-hybrid library CCNG1
T33 chain: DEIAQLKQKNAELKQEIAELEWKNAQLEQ

4H968-bN = biological target: T34, 4H968-bN; assay: two-hybrid library CCNG1
T34 chain: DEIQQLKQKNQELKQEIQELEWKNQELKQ

P9A = biological target: T35, P9A; assay: two-hybrid library CCNG1
T35 chain: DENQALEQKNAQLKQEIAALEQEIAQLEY

4H1446-AA = biological target: T36, 4H1446-AA; assay: two-hybrid library CCmax
T36 chain: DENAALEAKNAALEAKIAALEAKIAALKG

4H1845-AA = biological target: T37, 4H1845-AA; assay: two-hybrid library CCmax; settings: mean of both orientations
T37 chain: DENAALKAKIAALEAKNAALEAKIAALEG

4H2442-AA = biological target: T38, 4H2442-AA; assay: two-hybrid library CCmax; settings: mean of both orientations
T38 chain: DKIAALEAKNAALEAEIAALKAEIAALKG

4H3112-AA = biological target: T39, 4H3112-AA; assay: two-hybrid library CCmax; settings: mean of both orientations
T39 chain: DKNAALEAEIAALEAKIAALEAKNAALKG

4H3354-AA = biological target: T40, 4H3354-AA; assay: two-hybrid library CCmax; settings: mean of both orientations
T40 chain: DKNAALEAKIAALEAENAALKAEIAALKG

4H3427-AA = biological target: T41, 4H3427-AA; assay: two-hybrid library CCmax; settings: mean of both orientations
T41 chain: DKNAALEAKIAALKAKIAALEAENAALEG

4H3782-AA = biological target: T42, 4H3782-AA; assay: two-hybrid library CCmax; settings: mean of both orientations
T42 chain: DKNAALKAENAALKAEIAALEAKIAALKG

4H3855-AA = biological target: T43, 4H3855-AA; assay: two-hybrid library CCmax; settings: mean of both orientations
T43 chain: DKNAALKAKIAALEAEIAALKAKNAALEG

4H4001-AA = biological target: T44, 4H4001-AA; assay: two-hybrid library CCmax; settings: mean of both orientations
T44 chain: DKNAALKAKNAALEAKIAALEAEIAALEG

4H568-AA = biological target: T45, 4H568-AA; assay: two-hybrid library CCmax; settings: mean of both orientations
T45 chain: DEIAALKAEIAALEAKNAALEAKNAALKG

4H687-AA = biological target: T46, 4H687-AA; assay: two-hybrid library CCmax; settings: mean of both orientations
T46 chain: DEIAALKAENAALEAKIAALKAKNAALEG

4H717-AA = biological target: T47, 4H717-AA; assay: two-hybrid library CCmax; settings: mean of both orientations
T47 chain: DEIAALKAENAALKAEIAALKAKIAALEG

4H797-AA = biological target: T48, 4H797-AA; assay: two-hybrid library CCmax; settings: mean of both orientations
T48 chain: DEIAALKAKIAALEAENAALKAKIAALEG

4H883-AA = biological target: T49, 4H883-AA; assay: two-hybrid library CCmax; settings: mean of both orientations
T49 chain: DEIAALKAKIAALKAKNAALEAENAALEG

4H918-AA = biological target: T50, 4H918-AA; assay: two-hybrid library CCmax; settings: mean of both orientations
T50 chain: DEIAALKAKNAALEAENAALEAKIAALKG

4H953-AA = biological target: T51, 4H953-AA; assay: two-hybrid library CCmax; settings: mean of both orientations
T51 chain: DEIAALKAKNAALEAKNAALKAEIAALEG

4H967-AA = biological target: T52, 4H967-AA; assay: two-hybrid library CCmax; settings: mean of both orientations
T52 chain: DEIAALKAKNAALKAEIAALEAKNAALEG

4H1072-bA = biological target: T53, 4H1072-bA; assay: two-hybrid library CCNG1
T53 chain: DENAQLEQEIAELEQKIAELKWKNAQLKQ

4H2568-bA = biological target: T54, 4H2568-bA; assay: two-hybrid library CCNG1
T54 chain: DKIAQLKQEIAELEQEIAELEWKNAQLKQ

4H2619-bA = biological target: T55, 4H2619-bA; assay: two-hybrid library CCNG1
T55 chain: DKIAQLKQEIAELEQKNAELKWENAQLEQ

4H2745-bA = biological target: T56, 4H2745-bA; assay: two-hybrid library CCNG1
T56 chain: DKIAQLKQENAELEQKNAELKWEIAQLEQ

4H344-bA = biological target: T57, 4H344-bA; assay: two-hybrid library CCNG1
T57 chain: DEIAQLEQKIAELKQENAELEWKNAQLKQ

4H363-bA = biological target: T58, 4H363-bA; assay: two-hybrid library CCNG1
T58 chain: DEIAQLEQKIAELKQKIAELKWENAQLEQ

4H3961-bA = biological target: T59, 4H3961-bA; assay: two-hybrid library CCNG1
T59 chain: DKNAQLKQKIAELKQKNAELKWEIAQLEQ

4H470-bA = biological target: T60, 4H470-bA; assay: two-hybrid library CCNG1
T60 chain: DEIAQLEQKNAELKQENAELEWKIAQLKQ

DENAQLEQENAELEQKIAELKWEIAQLEQ [4H1193-bA]
interaction score (4H1193-bA): -1.02
interaction score (4H1328-bA): -0.132
interaction score (4H1369-bA): -1.1
interaction score (4H1387-bA): -0.852
interaction score (4H1406-bA): -0.0377
interaction score (4H1446-bA): -0.515
interaction score (4H1845-bA): -0.841
interaction score (4H2576-bA): 1.08
interaction score (4H2610-bA): -0.547
interaction score (4H2667-bA): -0.522
interaction score (4H2697-bA): -0.731
interaction score (4H3189-bA): -0.992
interaction score (4H331-bA): -1.28
interaction score (4H3592-bA): -0.214
interaction score (4H3601-bA): -0.992
interaction score (4H3606-bA): -0.984
interaction score (4H370-bA): -1.27
interaction score (4H3782-bA): 1.7
interaction score (4H3843-bA): 0.453
interaction score (4H3907-bA): -0.444
interaction score (4H4001-bA): 0.926
interaction score (4H4038-bA): 2.35
interaction score (4H454-bH): 0.453
interaction score (4H462-bA): 0.96
interaction score (4H568-bA): -1.33
interaction score (4H607-bA): -0.928
interaction score (4H687-bA): -0.956
interaction score (4H72-bA): -1.83
interaction score (4H797-bA): -1.03
interaction score (4H883-bA): -0.805
interaction score (4H918-bA): -1.33
interaction score (4H953-bA): -1.01
interaction score (4H967-bA): -0.577
interaction score (4H968-bN): 1.16
interaction score (P9A): 0.624

DENAALEAKNAALEAKIAALEAKIAALKG [4H1446-AA]
interaction score (4H1446-AA): 0.267
interaction score (4H1845-AA): -1.25
interaction score (4H2442-AA): -1.19
interaction score (4H3112-AA): -0.365
interaction score (4H3354-AA): -1.43
interaction score (4H3427-AA): -0.719
interaction score (4H3782-AA): 0.114
interaction score (4H3855-AA): -0.445
interaction score (4H4001-AA): 2.23
interaction score (4H568-AA): -1.7
interaction score (4H687-AA): -1.79
interaction score (4H717-AA): -1.15
interaction score (4H797-AA): -1.49
interaction score (4H883-AA): -1.54
interaction score (4H918-AA): -1.53
interaction score (4H953-AA): -0.751
interaction score (4H967-AA): -1.1

DENAQLEQEIAELEQKIAELKWKNAQLKQ [4H1072-bA]
interaction score (4H1072-bA): 0.969
interaction score (4H1193-bA): 0.766
interaction score (4H1387-bA): 1.46
interaction score (4H1406-bA): 0.239
interaction score (4H2568-bA): 1.85
interaction score (4H2619-bA): 0.0458
interaction score (4H2745-bA): -0.205
interaction score (4H344-bA): -0.759
interaction score (4H3592-bA): 1.81
interaction score (4H3601-bA): 0.34
interaction score (4H363-bA): 1.21
interaction score (4H3907-bA): 0.997
interaction score (4H3961-bA): 1.34
interaction score (4H4038-bA): 1.71
interaction score (4H470-bA): -1.2
